In the nanobody polyreactivity screen of Harvey et al. (2022):

Assay: yeast display, Sf9 membrane polyspecificity reagent, FACS + sequencing; frameworks hold sequencing errors
In short: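 Polyreactivity labels are assigned by the sorting gate from which each nanobody was recovered. The gates were low and high (top ~1%), set on anti-HA fluorescence for expression and streptavidin fluorescence for reagent binding. Before sorting, galactose-induced (36–48 hours) yeast display cells were stained for 1 hour at 4 °C with 10% biotinylated, detergent-solubilized Sf9 membrane reagent.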

Sequence | polyreactivity (PSR sort gate)
QVQLVESGGGLVQAGGSLRLSCAASGLTFVFYAMGWYRQAPGNERELVAAISWSTGRTYYADSVKGRFTISRDNAKNTVYLQMNSLKPEDTAVYYCAASYLGRKYDYWGQGTQVTVSS | high polyreactivity
QVQLVESGGGLVQAGGSLRLSCAASGLTFVIYAMGWYRQAPGKERELVARITWSGGSTYYADSVKGRFTISRDNAKNTVYLQMNSLKPEETAVDYCAARRFYYYNAGYDSWGQGTQVTVSS | low polyreactivity
QVQLVESGGGLVQAGGSLRLSCAASGLTFVRYTMGWYRQAPGKVRELVAAITWSGGSTYYADSVKGRFTISRDNAKNTVYLQMNSLKPQDTAVYYCAARHRYWYGVTVDYWGQGTHVTVSS | high polyreactivity
QVQLVESGGGLVQAGGSLRLSCAASGLTFVRYTMGWYRQPPGKVRELVAAITRGDGTNYADSVKGRFTISRDNAKNTVYLHLNCMKPEDTAVYLCADQEHFLWNYYAFDYWGQGTQVTVSS | low polyreactivity
QVQLVESGGGLVQAGGSLRLSCAASGLTFVVYAMGWYRQAPGKERELVASITSSGGRTYYADSVKGRFTISRDNAKNTVYLQMNSLKPEDTAVYYCNKYTWWLGSVDYWGQGTQVTVSS | high polyreactivity
QVQLVESGGGLVQAGGSLRLSCAASGLTFVYYAMGWYRQAPGKEMELVAAITSGGTTHYADSVKGRFTISRDNAKNTVYLQMNSLKPEDTAVYYCAATLGRWKRTYGYWGQGTQVTVSS | high polyreactivity
QVQLVESGGGLVQAGGSLRLSCAASGLTFWAYFMGWYRQAPGKEREFVAAITLSSGSTYYADSVKGRFTISRDNEKNTVYLQMNSLKPEYTAVYYCAATRDYGYWMYSWGQGTQGTVSS | high polyreactivity
QVQLVESGGGLVQAGGSLRLSCAASGLTFWFYAMGWYRQAPGKERELVASISRGGRTYYADSVKGRFTISRDNAKNTVYLQMNSLKPEDTAVYYCIADELYYEYKDYDYWGQGTQVTVSS | low polyreactivity
QVQLVESGGGLVQAGGSLRLSCAASGLTFWKNVMGWYRQAPGKERELVAAISWSGDSTYYADSVKGRFTISRDNAKNTVYLQMNSLKPEDTAVYYCAARYVSRYWAGRYPTRQRDSWGQGTQVTVSS | high polyreactivity
QVQLVESGGGLVQAGGSLRLSCAASGLTFWLYAMGWYRPAPGKERELVAAITRSGGSTSYADSVKGRFTISRDNAKNTVYLQMNSLKPEDTAVYYCNADSPGYTAVRLVEFDYWGQGTQVTVSS | low polyreactivity
QVQLVESGGGLVQAGGSLRLSCAASGLTFWWYAMGWYRQAPGKERELVAAISSSGGSTYYADSVKGRFTISRDNAKNTVYLQMNSLKPEDTAVYYCAVASWDNYWDPYGYWGQGTQVTVSS | low polyreactivity
QVQLVESGGGLVQAGGSLRLSCAASGLTFYAYAMGWYRQAPVKERELVAAISVRGRSTYYADSVKGRFTISRDIAKNTVFLQMNSLKPEDTAVYYCAAEFYRVQNFQFYYWGQGTQVTVSS | high polyreactivity
QVQLVESGGGLVQAGGSLRLSCAASGLTFYDYAMGWYRQAPGKERELVADIDFNGGSTSYADSVKGRFTISRDNAKNTVYLQMNSLKPEDSAVYYCNSRDRGDVVTGLDYWGQGTQVTVSS | low polyreactivity
QVQLVESGGGLVQAGGSLRLSCAASGLTFYFYAMGWYRQAPGKERELVAAINSGGSTNYADSVKGRFTISRDNAKNTVYLQMNSLKPEDTAVYYCNADYYFTSYEYEYWGQGTQVTVSS | low polyreactivity
QVQLVESGGGLVQAGGSLRLSCAASGLTFYGYVMGWYRHAPGKERELVASISRSGGRTYYADSVKGRFTISRDNAKNTVYLQMNSLKAEDTAVYYCGAGDQVGQEDDYWGQGTQGTVSS | low polyreactivity
QVQLVESGGGLVQAGGSLRLSCAASGLTFYINDKGWYRQAPWKERELVAAINYSGGSTYYADSVKGRFTISRHNAKNTVYLQMNSLKPEDTAVYYCAADVSRWWGQHRYYSWGQGTQVTVSS | high polyreactivity

Sequence | polyreactivity (PSR sort gate)
QVQLVESGGGLVQAGGSLRLSCAASGLTFYLNAMGWYRQAPGKERELVAGISYTGGSTYYADSVKGRFTISRDNAKNTVYLQMNSLKPEDTAVYYCARDNFYYGVWDYGYWGQGTQVTVSS | low polyreactivity
QVQLVESGGGLVQAGGSLRLSCAASGLTFYNYAMGWYIQAPGKERELVATITSSGARTYYADSVKGRFTISRDNAKNTVYLQMNSLTPEDTAVYYCAKQAYDQSPYNYWGQGTQVTVSS | high polyreactivity
QVQLVESGGGLVQAGGSLRLSCAASGLTFYPNAMGWYRQAPGKERELVAGITSGGSTYYADSVKGRFTISRDNAKNTVYLQMNSLKPEDTAVYYCAAYYNFGDYEYDYWGQGTQVTVSS | low polyreactivity
QVQLVESGGGLVQAGGSLRLSCAASGLTFYPYAMGWYRQAPGKESELVAAINWSGTTTYYADSVKGRFTISRDNAKNTVYLQMNSLKPADTAVYYCNADVYYEPTTGYYLWDYDYWGQGTQVTVSS | low polyreactivity
QVQLVESGGGLVQAGGSLRLSCAASGLTFYQNDLGWYRQAPGKERELVAAITLSGDITYYADSVKGRFTISRDNAKNTVFLQMNSLKPEDTAVYYCNADLYVDPWTYFGYDYWGQGTQVTVSS | low polyreactivity
QVQLVESGGGLVQAGGSLRLSCAASGLTFYRNAMGRYRQAPGKERELVAAITASGGRTYYADSVKGRFTISRDNAKNTVYLQMNSLKPEVTAVYYCAADGKVQGGYYWGQGTQVTVSS | high polyreactivity
QVQLVESGGGLVQAGGSLRLSCAASGLTFYRYAMGWYRQAPGKERELVAAIRVSGNTYYADSVKGRFTISRDNAKNTVYLQMNSLKPEDTAVFYCAAIPYYFYGMDYWGQGTQVTVSS | high polyreactivity
QVQLVESGGGLVQAGGSLRLSCAASGLTFYRYAMGWYRQAPGKERELVAAITSSGRTNYADSVKGRFTISRDNAKNTVYLQMNSLKPEDTAVYYCNAVRRTFNGPGSSQGYDYWGQGTQVTVSS | high polyreactivity
QVQLVESGGGLVQAGGSLRLSCAASGLTFYRYAMGWYRQAPGKERELVATIRSGDGTYYADSVKGRFTISRDNAMNTVYFKMNSLKPEDTAVYYCAAKKVYRVYGRYEYWGQGTQVTVSS | high polyreactivity
QVQLVESGGGLVQAGGSLRLSCAASGLTFYVYAMGWYRQAPGKEREFVAAISWSGTSTSYADSVKGRFTISRDNAKNTVYLQMNSLKPEDTAVYYCAADSFASVYFGTGYDYWGQGTQVTVSS | low polyreactivity
QVQLVESGGGLVQAGGSLRLSCAASGLTFYWNAMGWYRQAPGKERELVASISQSSGNTYYADSVKGRFSISRDNAKNTVYLQMNSLKPEDTAVYYCAARNRPSLNRYYYWGQGTQVNVSS | low polyreactivity
QVQLVESGGGLVQAGGSLRLSCAASGLTFYYYAMGWYRQAPGIEREFVAAINWDGGSTYYADSVKGRFTISRDKAKNTVYLQMNSLKPEDTAVYYCATGDTDYDYWGQGTQVTVSS | low polyreactivity
QVQLVESGGGLVQAGGSLRLSCAASGLTFYYYAMGWYRQAPGKEREFVAAITRSGTNTYYADSVKGRFTISRDTAKNTVYLQMNSLKPEDTAVYYCAKTGYSFRVFRKYDWGQGTQVTVSS | high polyreactivity
QVQLVESGGGLVQAGGSLRLSCAASGLTFYYYAMGWYRQAPGKERELVAAISATGGRTYYADSVKGRFTISRDNAKNTVYLQMNSLKPEDTAVYYCAADTPYLRRRLGMDYWGQGTQVTVSS | high polyreactivity
QVQLVESGGGLVQAGGSLRLSCAASGLTFYYYAMGWYRQAPGKERELVAAISCSGGSTYYADSVKGRFTISRDNAKNTVYLQMNSLKPEDTAVYYCAAEGDYFLWYRYDYWGQGTQVTVSS | high polyreactivity
QVQLVESGGGLVQAGGSLRLSCAASGLTFYYYAMGWYRQAPGKERELVAAISSVGSTYYADSVKGRFTISRDNAKNTVYLQRNSLKPEDTAVYYCAAKSYWWHEDYWGQGTQVTVSS | low polyreactivity
